Data as given in US20240279345A1, “ALPHA 5 BETA 1 INTEGRIN BINDING AGENTS AND USES THEREOF” (PASITHEA THERAPEUTICS CORP., priority 2021, published 2024).

Tests used:
[1] = molecular target: T1, recombinant mouse α5β1 (rm-α5β1) (Mus musculus, UniProt P09055+P11688); assay: Plate-based ELISA cross-reactivity to rm-α5β1; assay type: binding; details: hybridoma supernatant diluted 1:10; plate coated with rm-α5β1
T1 construct: purchased R&D Systems 7728-A5
Method: (§1) The 249 positive hybridoma supernatants selected as described in Example 1 were screened for reactivity to rh-α5β1 in a plate-based ELISA. Immulon4 HBX ELISA 96-well plates (Thermo Fisher Scientific, Waltham, MA, cat. no. 3855) were coated with rh-α5β1 (R&D Systems, Minneapolis, MN 55413, cat. no. 3230-A5), at 1 μg/mL in PBS supplemented with 0.5 mM MgCl2, MnCl2 and CaCl2 and incubated overnight at 4° C. Plates were washed 3 times with Wash Buffer (1× Tris Buffered Saline containing 0.05% Tween20), blocked with 2% BSA in 1×TBS (made from 10× Thermo Scientific Blocker BSA (10×) in TBS; Thermo Fisher Scientific, Waltham, MA, cat. no. 37520) for 2 hours at room temperature (RT) then incubated with hybridoma supernatants diluted 1:10 with Standard Diluent (2% BSA, 1×TBS, 0.05% Tween20). Following a 1 hour incubation at RT, wells were washed 3 times, incubated with biotinylated goat anti-mouse secondary antibody at 1:8000 dilution (Invitrogen, Carlsbad, CA, cat. no. 62-6540) for 1 hour, washed 3 times, then incubated for 30 minutes with poly-HRP Streptavidin (Thermo Fisher Scientific, Waltham, MA, cat. no. N200), washed 4 times, incubated with TMB (Thermo Fisher Scientific, Waltham, MA, cat. no. N301) for 5-10 minutes, followed by addition of ELISA Stop Solution (Invitrogen, Carlsbad, CA, cat. no. SS04). Absorbance 450 nm was measured.
In addition, hybridomas were tested for cross-reactivity to recombinant mouse α5β1 (rm-α5β1; R&D Systems, Minneapolis, MN 55413; cat. no. 7728-A5) using the same protocol as above except that the plates were coated with rm-α5β1.

[2] = molecular target: T2, recombinant human α5β1 integrin (rh-α5β1) (Homo sapiens, UniProt P05556+P08648); assay: Plate-based ELISA reactivity to rh-α5β1; assay type: binding; details: selected for further characterization among α5 specific hybridomas (28 selected)
T2 construct: purchased R&D Systems 3230-A5
T2 sequence (P08648 42-894 limits assumed): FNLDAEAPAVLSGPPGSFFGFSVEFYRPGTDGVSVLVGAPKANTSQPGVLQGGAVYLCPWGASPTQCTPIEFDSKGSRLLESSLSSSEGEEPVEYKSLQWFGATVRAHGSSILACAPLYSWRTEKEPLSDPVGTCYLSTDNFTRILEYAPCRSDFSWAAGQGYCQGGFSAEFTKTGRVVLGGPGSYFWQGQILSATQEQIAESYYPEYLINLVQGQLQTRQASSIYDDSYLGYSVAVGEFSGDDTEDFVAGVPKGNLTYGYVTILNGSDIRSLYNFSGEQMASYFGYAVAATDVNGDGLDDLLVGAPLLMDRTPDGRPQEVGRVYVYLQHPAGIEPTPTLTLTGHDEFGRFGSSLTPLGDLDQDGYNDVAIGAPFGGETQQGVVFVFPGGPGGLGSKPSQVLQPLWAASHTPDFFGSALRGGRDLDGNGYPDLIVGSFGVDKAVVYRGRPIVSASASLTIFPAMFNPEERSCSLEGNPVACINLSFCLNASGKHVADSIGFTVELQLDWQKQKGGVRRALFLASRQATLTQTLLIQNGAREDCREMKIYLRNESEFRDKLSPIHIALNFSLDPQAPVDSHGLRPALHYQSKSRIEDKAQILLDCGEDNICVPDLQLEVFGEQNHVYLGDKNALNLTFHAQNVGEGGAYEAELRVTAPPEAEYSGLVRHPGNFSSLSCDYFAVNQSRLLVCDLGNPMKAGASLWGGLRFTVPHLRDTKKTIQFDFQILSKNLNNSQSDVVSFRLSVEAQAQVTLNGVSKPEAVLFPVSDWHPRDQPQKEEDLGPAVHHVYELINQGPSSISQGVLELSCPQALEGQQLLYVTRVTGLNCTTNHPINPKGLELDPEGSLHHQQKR
T2 sequence (P08648 895-995 limits assumed): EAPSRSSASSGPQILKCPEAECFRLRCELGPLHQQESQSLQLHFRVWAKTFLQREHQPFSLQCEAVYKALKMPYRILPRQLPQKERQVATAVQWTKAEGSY
T2 sequence (P05556 21-728 limits assumed): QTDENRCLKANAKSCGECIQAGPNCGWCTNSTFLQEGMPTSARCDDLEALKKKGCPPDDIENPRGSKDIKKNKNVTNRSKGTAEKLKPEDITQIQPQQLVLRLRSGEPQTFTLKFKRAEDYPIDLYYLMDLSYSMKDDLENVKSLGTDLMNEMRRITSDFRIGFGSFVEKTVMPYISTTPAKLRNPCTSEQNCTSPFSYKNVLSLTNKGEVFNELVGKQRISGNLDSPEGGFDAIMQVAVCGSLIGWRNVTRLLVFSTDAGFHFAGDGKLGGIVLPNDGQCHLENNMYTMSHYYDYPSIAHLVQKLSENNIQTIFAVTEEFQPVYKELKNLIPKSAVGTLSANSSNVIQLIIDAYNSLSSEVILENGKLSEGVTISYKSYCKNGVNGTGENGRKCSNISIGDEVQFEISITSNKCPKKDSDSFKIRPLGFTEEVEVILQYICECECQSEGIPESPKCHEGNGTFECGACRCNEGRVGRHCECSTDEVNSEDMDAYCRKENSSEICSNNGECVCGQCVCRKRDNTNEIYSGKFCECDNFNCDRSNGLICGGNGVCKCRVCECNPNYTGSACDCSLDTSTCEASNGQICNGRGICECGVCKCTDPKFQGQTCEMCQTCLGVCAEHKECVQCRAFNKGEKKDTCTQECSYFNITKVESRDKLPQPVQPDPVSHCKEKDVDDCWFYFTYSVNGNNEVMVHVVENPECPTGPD
Method: as §1

[3] = molecular target: rh-α5β1 (Homo sapiens, UniProt P05556+P08648); assay: Competition binding studies by Biolayer Interferometry (epitope groups); details: for Response (nm) / % Response: secondary mAb pre-mixed with 20 nM rh-α5β1; for % Response: relative to antigen alone
rh-α5β1, sequence (P08648 42-894 limits assumed): as the sequence (P08648 42-894 limits assumed) above
rh-α5β1, sequence (P08648 895-995 limits assumed): as the sequence (P08648 895-995 limits assumed) above
rh-α5β1, sequence (P05556 21-728 limits assumed): as the sequence (P05556 21-728 limits assumed) above
Method: Epitope analysis via competition binding studies was performed using Biolayer Interferometry (BLI) on the 6 antibodies selected as described in Example 5. The anti-α5β1 FN blocking antibodies A2-7A05, C-14D12 and A-15B08 were immobilized on sensors and incubated with each of the other antibodies that had been preincubated with rh-α5β1, to determine whether this antibody-antigen association prevents or allows binding to the antibody on the sensor. The magnitude of observed binding (response) was compared to binding of antigen alone under the same conditions. If the overall response was greater than 120% of antigen binding alone, then the antibodies can pair with each other. If response was less than 80% of response of antigen binding alone, then the antibodies block each other. The protocol was as follows: preincubate the panel of antibodies with antigen (1 hr). Equilibrate the sensor (30 seconds (s))-->Load lead Ab on the sensor (700s)--->Quench (480s)--->Read baseline (480s)-->measure preincubated Ab+Ag association with loaded sensor (600s).

[4] = molecular target: T3, rh-α4β1 (Homo sapiens, UniProt P05556+P13612); assay: Plate-based ELISA reactivity to rh-α4β1 (α5 subunit specificity); assay type: binding; details: hybridoma supernatant diluted 1:10; plate coated with rh-α4β1
T3 construct: purchased R&D Systems 3230-A5 & 5668-A4
T3 sequence (P13612 34-977 limits assumed): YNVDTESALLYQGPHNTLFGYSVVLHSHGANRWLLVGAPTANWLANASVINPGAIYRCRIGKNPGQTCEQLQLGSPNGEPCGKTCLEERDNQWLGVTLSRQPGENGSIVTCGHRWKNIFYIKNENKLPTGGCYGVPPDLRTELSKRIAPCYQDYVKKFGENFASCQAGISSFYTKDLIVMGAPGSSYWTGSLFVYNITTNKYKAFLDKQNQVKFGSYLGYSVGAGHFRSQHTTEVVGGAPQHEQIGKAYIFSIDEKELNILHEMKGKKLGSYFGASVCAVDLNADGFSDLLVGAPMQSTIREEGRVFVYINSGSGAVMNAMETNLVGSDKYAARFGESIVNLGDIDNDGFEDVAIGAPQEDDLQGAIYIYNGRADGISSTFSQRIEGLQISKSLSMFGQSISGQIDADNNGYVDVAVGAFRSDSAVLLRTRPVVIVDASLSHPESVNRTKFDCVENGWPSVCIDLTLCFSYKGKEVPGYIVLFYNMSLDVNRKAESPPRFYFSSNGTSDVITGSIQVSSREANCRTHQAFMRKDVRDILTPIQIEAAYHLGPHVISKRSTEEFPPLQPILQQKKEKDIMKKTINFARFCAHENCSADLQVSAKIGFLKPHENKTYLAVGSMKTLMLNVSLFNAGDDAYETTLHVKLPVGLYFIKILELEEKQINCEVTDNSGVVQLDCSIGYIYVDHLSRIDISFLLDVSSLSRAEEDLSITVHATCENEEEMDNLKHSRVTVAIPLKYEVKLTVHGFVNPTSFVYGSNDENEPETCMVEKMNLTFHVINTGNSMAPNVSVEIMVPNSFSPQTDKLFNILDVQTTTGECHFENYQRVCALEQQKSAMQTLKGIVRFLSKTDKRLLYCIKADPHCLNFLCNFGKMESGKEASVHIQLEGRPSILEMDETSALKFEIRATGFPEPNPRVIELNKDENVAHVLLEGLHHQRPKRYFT
T3 sequence (P05556 21-728 limits assumed): as the sequence (P05556 21-728 limits assumed) above
Method: as §1
In parallel the 249 hybridomas were screened for specificity to the human α5 subunit by testing for reactivity to rh-α4β1 (R&D Systems, Minneapolis, MN 55413; cat. no. 3230-A5 & 5668-A4). Any hybridoma that reacted to both rh-α4β1 and rh-α5β1 is likely to be β1 subunit specific and not considered α5 specific. Using the protocol described above, 29 hybridoma supernatants reacted strongly (>1.0 Absorbance 450 nm) with rh-α4β1 and were not considered to be α5 specific.

[5] = molecular target: T4, binding of α5β1 integrin to fibronectin (FN) (Homo sapiens, UniProt P05556+P08648); assay: Quantitative FN inhibition (FN-blocking) assay in ELISA format; assay type: biochemical; details: by ELISA
T4 construct: purchased Acro Biosystems IT1-H52W5
T4 sequence (P08648 42-894 limits assumed): as the sequence (P08648 42-894 limits assumed) above
T4 sequence (P08648 895-995 limits assumed): as the sequence (P08648 895-995 limits assumed) above
T4 sequence (P05556 21-728 limits assumed): as the sequence (P05556 21-728 limits assumed) above
Excerpt: To determine whether the 9 unique hybridoma clones selected as described in Example 4 were able to inhibit the binding of α5β1 integrin to fibronectin (FN), the antibodies were first purified from hybridoma supernatants by Protein A chromatography, protein concentrations measured by BCA assay (Pierce™ BCA Protein Assay Kit; Thermo Fisher Scientific, Waltham, MA, cat. no. 23225) and then tested in a quantitative FN inhibition assay in an ELISA format.
Immulon4 HBX ELISA 96-well plates were coated with FN by incubation overnight at 4° C. with 2.5 μg/mL human FN (R&D Systems, Minneapolis, MN 55413, cat. no. 1918-FN) in 1×PBS (0.01M phosphate buffer and 0.154M NaCl, pH 7.4). Plates were then washed 3 times with Wash Buffer (1× Tris Buffered Saline containing 0.05% Tween20), blocked with 2% BSA in 1×TBS for 2 hours at room temperature (RT). Antibodies were diluted in Standard Diluent (2% BSA, 1×TBS, 0.05% Tween20) containing 0.1 μg/mL rh-α5β1-6×His tagged protein (Acro Biosystems, Newark, DE, cat. no. IT1-H52W5), to generate an 11 point 1:3 antibody dilution series ranging from 10,000 ng/mL to 0.17 ng/mL. Isotype control antibody (Control Ab; Ms IgG2a EMD Millipore Corp, Billerica, MA, cat. no. PP102) was used to normalize data across different assay runs. For the assays, 100 uL of the antibody dilution series/His-tagged-α5β1 mixture was added to the wells after the blocking solution was removed and wells were washed 3 times. Following 1 hour at RT, the wells were washed 3 times, incubated with biotinylated Anti-6×His-Tag Ab (Invitrogen, Carlsbad, CA, cat. no. MAI-21315-BTIN) at 1:1000 in Standard Diluent for 1 hour, washed 3 times, incubated for 30 minutes with poly-HRP Streptavidin (Thermo Fisher Scientific, Waltham, MA, cat. no. N200), washed 4 times, incubated with TMB substrate (Thermo Fisher Scientific, Waltham, MA, cat. no. N301) for 2-5 minutes, followed by addition of ELISA Stop Solution (Invitrogen, Carlsbad, CA, cat. no. SS04). Absorbance 450 nm was measured. Data points were normalized to the isotype Control Ab values at each concentration and reported as % Absorbance 450 nm normalized to Control Ab. Non-linear regression analysis was used to fit curves (4-parameter) to the data using GraphPad Prism version 9.0.2 (GraphPad Software, LLC, San Diego, CA).
Freeze-thaw stability was tested on a small aliquot of each chimera antibody by overnight storage at −80° C. followed by thaw on ice, repeated three times. […] IC50s were calculated by non-linear regression analysis curve-fitting (4-parameter) of the ELISA data (FIG. 5) using GraphPad Prism version 9.0.2 (GraphPad Software, LLC, San Diego, CA). […]

T1 sequence (P11688 45-898 limits assumed): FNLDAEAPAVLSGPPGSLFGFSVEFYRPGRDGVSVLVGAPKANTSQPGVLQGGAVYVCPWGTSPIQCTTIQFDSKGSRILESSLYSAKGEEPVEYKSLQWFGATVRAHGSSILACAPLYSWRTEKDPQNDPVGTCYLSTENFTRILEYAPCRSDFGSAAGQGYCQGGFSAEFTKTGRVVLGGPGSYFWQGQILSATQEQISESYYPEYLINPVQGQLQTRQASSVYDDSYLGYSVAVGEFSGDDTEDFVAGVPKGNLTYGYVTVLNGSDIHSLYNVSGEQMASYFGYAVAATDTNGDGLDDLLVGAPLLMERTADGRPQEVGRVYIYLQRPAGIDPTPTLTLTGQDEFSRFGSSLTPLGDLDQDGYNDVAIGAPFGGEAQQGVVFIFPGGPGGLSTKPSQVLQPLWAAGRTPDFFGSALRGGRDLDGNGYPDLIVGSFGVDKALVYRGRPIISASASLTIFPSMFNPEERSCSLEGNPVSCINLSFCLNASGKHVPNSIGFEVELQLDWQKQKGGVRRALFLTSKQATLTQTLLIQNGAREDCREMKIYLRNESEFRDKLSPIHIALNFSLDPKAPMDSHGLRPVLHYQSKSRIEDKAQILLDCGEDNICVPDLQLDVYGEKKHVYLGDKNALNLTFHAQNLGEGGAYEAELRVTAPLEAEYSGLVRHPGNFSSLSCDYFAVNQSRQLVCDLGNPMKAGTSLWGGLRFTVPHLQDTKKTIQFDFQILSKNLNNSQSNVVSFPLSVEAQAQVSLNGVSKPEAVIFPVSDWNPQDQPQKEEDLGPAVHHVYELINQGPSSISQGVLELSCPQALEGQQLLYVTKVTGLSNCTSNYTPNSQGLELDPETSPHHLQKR
T1 sequence (P11688 899-999 limits assumed): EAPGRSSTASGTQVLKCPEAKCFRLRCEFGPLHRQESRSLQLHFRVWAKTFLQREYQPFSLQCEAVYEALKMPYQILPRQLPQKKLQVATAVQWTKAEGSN
T1 sequence (P09055 21-728 limits assumed): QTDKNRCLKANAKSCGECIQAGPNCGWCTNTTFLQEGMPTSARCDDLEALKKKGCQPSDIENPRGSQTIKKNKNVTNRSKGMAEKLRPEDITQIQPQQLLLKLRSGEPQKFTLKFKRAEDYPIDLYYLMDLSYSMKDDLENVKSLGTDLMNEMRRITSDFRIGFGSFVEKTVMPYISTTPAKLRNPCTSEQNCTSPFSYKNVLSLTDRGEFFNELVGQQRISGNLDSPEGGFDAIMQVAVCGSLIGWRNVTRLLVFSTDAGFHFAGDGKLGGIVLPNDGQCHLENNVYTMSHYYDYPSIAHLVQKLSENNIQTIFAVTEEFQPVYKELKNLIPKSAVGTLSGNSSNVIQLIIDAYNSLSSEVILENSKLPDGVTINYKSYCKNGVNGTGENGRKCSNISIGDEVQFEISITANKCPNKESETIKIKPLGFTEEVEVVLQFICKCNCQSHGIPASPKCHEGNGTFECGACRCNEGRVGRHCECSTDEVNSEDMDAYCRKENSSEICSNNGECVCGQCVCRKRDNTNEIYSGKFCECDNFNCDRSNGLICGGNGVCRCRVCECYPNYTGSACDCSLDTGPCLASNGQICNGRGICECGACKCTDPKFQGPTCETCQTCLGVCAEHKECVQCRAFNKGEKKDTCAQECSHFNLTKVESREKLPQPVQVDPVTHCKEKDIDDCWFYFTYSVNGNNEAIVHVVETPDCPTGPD

| Molecule | Absorbance 450 nm Mouse α5β1 [1] | Selected Human α5 Specific [2] | Absorbance 450 nm Human α4β1 [4] | further results |
| --- | --- | --- | --- | --- |
| A2-3B06: anti-α5β1 antibody, VH SEQ ID NO:42, VL SEQ ID NO:43 (antibody, V domains shown, A2-3B06 VH Sequence; A2-3B06 VL Sequence) VH: QVQLKESGPGLVAPSQSLSITCTISGFSLTTYGVHWVRQPPGKGLEWLVVIWSDGSTTYNSALKSRLNITKDNSKSQVFLKMNSLQTDDTAMYYCVRHGGLLRRDAMDYWGQGTSVTVSS VL: QIVLTQSPAIMSASLGERVTMTCTASSSVSSNSFHWYQQKPGSSPKLWLYSTSNLASGVPARFSGSGSGTSYSLTISSMEAEDAATYYCHQYLRSPPTFGGGTKLEIK | 0.049 | Yes | 0.0558 | binding of rh-α5β1 complexed with antibody to A2-7A05 on the sensor ([3]; antibody preincubated with rh-α5β1, A2-7A05 immobilized on sensor): able to bind; binding of rh-α5β1 complexed with antibody to A-15B08 on the sensor ([3]; antibody preincubated with rh-α5β1, A-15B08 immobilized on sensor): not able to bind; binding of rh-α5β1 complexed with antibody to C-14D12 on the sensor ([3]; antibody preincubated with rh-α5β1, C-14D12 immobilized on sensor): not able to bind; Response (nm) ([3]; immobilized mAb A2-7A05): 0.07 nm; % Response ([3]; immobilized mAb A2-7A05): 198.65%; Response (nm) ([3]; immobilized mAb A-15B08): 0.10 nm; % Response ([3]; immobilized mAb A-15B08): 50.05%; Response (nm) ([3]; immobilized mAb C-14D12): 0.12 nm; % Response ([3]; immobilized mAb C-14D12): 53.28%; epitope group ([3]; two epitope groups among 6 antibodies): second group |
| A2-8H11: hybridoma clone positive on K562 cells (antibody, V domains shown) VH: QVQLKESGPGLVAPSQSLSITCTISGFSLTTYGVHWVRQPPGKGLEWLVVIWSDGSTTYNSALKSRLNITKDNSKSQVFLKMNSLQTDDTAMYYCVRHGGLLRRDAMDYWGQGTSVTVSS VL: QIVLTQSPAIMSASLGERVTMTCTASSSVSSNSFHWYQQKPGSSPKLWLYSTSNLASGVPARFSGSGSGTSYSLTISSMEAEDAATYYCHQYLRSPPTFGGGTKLEIK | 0.0515 | Yes | 0.0595 | – |
| A2-9A11: hybridoma clone positive on K562 cells (antibody, V domains shown) VH: QVQLKESGPGLVAPSQSLSITCTISGFSLTTYGVHWVRQPPGKGLEWLVVIWSDGSTTYNSALKSRLNITKDNSKSQVFLKMNSLQTDDTAMYYCVRHGGLLRRDAMDYWGQGTSVTVSS VL: QIVLTQSPAIMSASLGERVTMTCTASSSVSSNSFHWYQQKPGSSPKLWLYSTSNLASGVPARFSGSGSGTSYSLTISSMEAEDAATYYCHQYLRSPPTFGGGTKLEIK | 0.0619 | Yes | 0.0608 | – |
| A-15B08-T62A: human IgG4 chimera variant of A-15B08, Thr62 to Ala in CDRH2; VH SEQ ID NO:135, VL SEQ ID NO:26 (antibody, V domains shown, human IgG4 constant regions; A-15B08-T62A VH Sequence; A-15B08 VL Sequence) VH: QVQLKESGPGLVAPSQSLSITCTISGFSLTSYGVHWVRQPPGKGLEWLVVIWSDGSTTYNSALKSRLSISKDNSKSQVFFKMNSLQTDDTAMYYCARHYDYDGDWFAYWGQGTLVTVSA VL: QIVLTQSPAIMSASLGERVTMTCTASSRVSSNSLHWYQQKPGSSPKLWIYSTSNLASGVPARFSGSGSGTSYSLTISSMEAEDAATYYCHQYLRSPPTFGGGTKLEIK | – | – | – | class of FN binding blocker [5]: strong blockers of FN binding |
| A2-6C10: hybridoma clone positive on K562 cells (antibody, V domains shown) VH: QVQLKESGPGLVAPSQSLSITCTISGFSLTTYGVHWVRQPPGKGLEWLVVIWSDGSTTYNSALKSRLNITKDNSKSQVFLKMNSLQTDDTAMYYCVRHGGLLRRDAMDYWGQGTSVTVSS VL: QIVLTQSPAIMSASLGERVTMTCTASSSVSSNSFHWYQQKPGSSPKLWLYSTSNLASGVPARFSGSGSGTSYSLTISSMEAEDAATYYCHQYLRSPPTFGGGTKLEIK | 0.0551 | Yes | 0.0609 | – |
